Test results: patent publication US20240199757A1 (UNIVERSITY OF CHICAGO, published 2024)

B1: 1789 Fab (Fab, V domains shown)
VH: EVQLVESGGGLVQPGGSLRLSCAASGFNVSYSSIHWVRQAPGKGLEWVASISSSSGYTYYADSVKGRFTISADTSKNTAYLQMNSLRAEDTAVYYCARNYWGWYPFYYFAFDYWGQGTLVTV
VL: DIQMTQSPSSLSASVGDRVTITCRASQSVSSAVAWYQQKPGKAPKLLIYSASSLYSGVPSRFSGSRSGTDFTLTISSLQPEDFATYYCQQGWDYPITFGQGTKVEIKR
B2: 1789 IgG (antibody, V domains shown)
VH: EVQLVESGGGLVQPGGSLRLSCAASGFNVSYSSIHWVRQAPGKGLEWVASISSSSGYTYYADSVKGRFTISADTSKNTAYLQMNSLRAEDTAVYYCARNYWGWYPFYYFAFDYWGQGTLVTVSS
VL: B1 VL

What was measured:
[1] = biological target: T1, Full-length cynomolgus NT5E (recombinant) (cynomolgus, UniProt P21589 27-549 (human entry)); test: SPR, His-captured NT5E, no ATP; SPR, No ATP
T1 construct: also called cNT5E; cyno NT5E
T1 chain: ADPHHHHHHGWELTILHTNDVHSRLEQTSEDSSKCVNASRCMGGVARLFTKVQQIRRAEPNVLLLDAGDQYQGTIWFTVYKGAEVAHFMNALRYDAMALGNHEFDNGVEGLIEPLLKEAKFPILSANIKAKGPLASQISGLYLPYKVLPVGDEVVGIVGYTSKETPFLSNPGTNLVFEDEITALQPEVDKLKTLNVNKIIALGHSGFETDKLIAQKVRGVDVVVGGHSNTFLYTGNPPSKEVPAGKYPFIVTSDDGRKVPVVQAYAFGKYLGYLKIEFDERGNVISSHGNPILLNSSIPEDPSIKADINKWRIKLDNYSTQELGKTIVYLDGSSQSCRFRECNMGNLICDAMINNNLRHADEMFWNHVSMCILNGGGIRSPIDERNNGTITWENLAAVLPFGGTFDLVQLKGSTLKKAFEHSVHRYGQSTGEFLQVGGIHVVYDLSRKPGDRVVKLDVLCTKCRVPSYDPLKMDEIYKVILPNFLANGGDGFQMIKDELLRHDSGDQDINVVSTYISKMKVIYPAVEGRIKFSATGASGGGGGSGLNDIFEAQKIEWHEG
Protocol: All SPR experiments were performed at 25° C. using MASS-1 (Bruker) instrument. hNT5E, mNT5E and cNT5E were immobilized onto a nitrilotriacetic acid (NTA) sensor chip via His-tag. For kinetic experiments, after ligand immobilization, 2-fold serial dilutions of the Fabs were injected. After double-reference subtraction data were analyzed with BiaEvaluation (GE Healthcare) or Sierra Analyser (Bruker) software. The experiments were carried in buffers in presence and absence of 1 mM ATP to compare the kinetic parameters of the Fabs binding to closed and open form of NT5E.

[2] = biological target: T2, Full-length murine NT5E (recombinant) (murine, UniProt Q61503 29-552); test: ELISA, biotinylated NT5E on neutravidin plate, 1 mM ATP; ELISA, recombinant mNT5E, with ATP (EC50ATP)
T2 construct: also called mNT5E
T2 sequence: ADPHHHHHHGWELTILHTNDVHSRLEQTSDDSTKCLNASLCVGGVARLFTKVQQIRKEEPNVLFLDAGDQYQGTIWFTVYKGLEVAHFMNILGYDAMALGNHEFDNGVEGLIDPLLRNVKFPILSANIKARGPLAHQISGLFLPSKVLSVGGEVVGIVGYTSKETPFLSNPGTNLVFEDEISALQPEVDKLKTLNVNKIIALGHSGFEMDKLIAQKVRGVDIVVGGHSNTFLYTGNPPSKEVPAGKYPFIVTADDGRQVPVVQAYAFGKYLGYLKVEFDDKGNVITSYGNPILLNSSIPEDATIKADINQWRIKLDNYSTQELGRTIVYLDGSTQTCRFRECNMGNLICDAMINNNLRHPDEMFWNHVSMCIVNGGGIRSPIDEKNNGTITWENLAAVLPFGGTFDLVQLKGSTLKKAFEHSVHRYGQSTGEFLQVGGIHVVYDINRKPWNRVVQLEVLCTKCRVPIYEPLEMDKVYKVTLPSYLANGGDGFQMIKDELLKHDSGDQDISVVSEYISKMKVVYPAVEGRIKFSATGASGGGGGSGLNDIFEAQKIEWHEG
Protocol: (B) Protein ELISA: Protein-based multipoint ELISA was performed to estimate the affinity of the generated Fabs and IgGs to NT5E. The binding of the Fabs and IgGs to the closed form of NT5E were determined in ELISA buffer (HBST) supplemented with 10 μM zinc chloride and 1 mM ATP while the binding of the same to open form of NT5E were determined in ELISA buffer (HBST) without any cofactors. A fixed concentration of the immobilized target (50 nM) on ELISA plate was incubated with 3-fold serial dilutions of the purified Fabs and IgGs starting from 3 μM and 1 μM respectively for 15 min. The plates were washed and were subsequently incubated with a secondary HRP-conjugated anti-protein L monoclonal antibody (#32420, ThermoFisher, 1:6000 dilution). As with phage ELISA, the plates were again washed, developed with TMB substrate and quenched with 1.0 M HCl, and absorbance (Abs450) was determined. To determine the affinity (EC50), the data were fitted with a non-linear, 4-parameter logistic curve in OriginLab.

[3] = biological target: T3, murine NT5E expressed on 4T1 cells (murine, UniProt Q61503 29-551); test: flow cytometry on 4T1 cells, 1 mM ATP
T3 construct: whole, on cells; also called mouse NT5E-expressing 4T1 cells
T3 sequence (looked up): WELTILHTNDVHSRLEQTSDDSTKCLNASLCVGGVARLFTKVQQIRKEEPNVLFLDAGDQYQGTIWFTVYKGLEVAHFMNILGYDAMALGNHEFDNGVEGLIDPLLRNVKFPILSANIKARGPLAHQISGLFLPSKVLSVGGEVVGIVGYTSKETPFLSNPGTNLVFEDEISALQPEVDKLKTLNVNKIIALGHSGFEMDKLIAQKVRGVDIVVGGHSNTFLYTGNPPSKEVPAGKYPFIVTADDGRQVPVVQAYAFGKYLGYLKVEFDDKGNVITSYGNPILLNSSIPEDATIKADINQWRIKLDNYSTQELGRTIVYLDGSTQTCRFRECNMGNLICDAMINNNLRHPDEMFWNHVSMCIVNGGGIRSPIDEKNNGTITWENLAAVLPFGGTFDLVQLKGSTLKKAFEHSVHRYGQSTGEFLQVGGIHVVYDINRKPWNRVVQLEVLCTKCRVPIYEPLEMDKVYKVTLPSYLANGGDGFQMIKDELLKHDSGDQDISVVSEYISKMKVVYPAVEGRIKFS
Protocol: Human MDA-MB-231 cells and murine 4T1 cells were grown to 90% confluency, detached with 5 mM EDTA for 15 min at 37° C. and then resuspended in 37° C. lx PBS (#10010031, Gibco) supplemented with 1% FBS and 1OpM ZnCl2. Separate working buffers (WB) of PBS and 1% FBS with or without fixed nucleotide concentrations were used throughout all washing steps to maintain constant condition. In 96-well plates (#3799, Costar), 0.2×10⁶ cells were added per well. The plates were spun at 500×g for 5 min and the supernatant was removed. Anti-NT5E antibodies were diluted to the desired concentration in 100 μL WB, added to the cells and the plates were incubated for 20 min at 37° C. Plates were spun and cells were washed twice with WB then spun a second time. Cells were stained with 100 μL of secondary antibody (Alexa Fluor 647 AffiniPure Goat Anti-Human IgG, F(ab′)2 fragment specific, #109-605-006, Jackson, 1:200) dilution and plates were incubated for 20 min at 37° C. Cells were washed twice with WB then fixed on ice with WB supplemented with 0.5% PFA. Fixing solution was removed by centrifugation and cells were resuspended in cold 1× PBS. Samples were analyzed by flow cytometry using CytoFLEX (Beckman Coulter) and mean fluorescence intensity (MFI) data was extracted using FlowJo software. Resulting binding data was plotted using OriginLab.

Row | Binder | kon [1] | EC50 [2] | EC50 [3]
1 | B1 | 140000 M⁻¹ s⁻¹ | 132 nM | –
2 | B2 | – | – | 37.3 nM
